This series in a line: soluble on expression in E. coli; label from the status in PepcDB or PDB records.
Regarding “MTTPTFDINAAIQALREGKDLTGKDGILTPLIKQLTEAALAAELDSHLTSTEGANRKNGKTTKTIKSPLGNFELNTPRDRAGTFEPQLVKKHQTQLTDEMERKIIGLFSLGSSYQDIRAHIEDMYGMSVSNGTVNAITDKLLPELQAWRERELEPLYPVIWLDAIHYKIKENGRFISKAVYTILALNVDGKKELLGLYLSDNEGAHHWLSVLTDLYNRGVKDILIACVDGLKGFPEAIATIYPQTEVQLCVIHQIRNSIKYVASKHQKAFMADLKCVYKAATLNAAEMALDELETKWGDKYPVVIKSWRNKWALLSVYFKYPDYVRTAIYTTNAVEAVHRQFRKLAKTKGGFANENSLLKLLYAGILKASERWTHP”, the “soluble on expression in E. coli” value was “soluble”. In the case of “MNALSGLQTHEDSTCCNRFCRPDERSASGNSTLLRFGGFFADQTYLQVTRLMQRIHYLHQRLVIDGFVRSEEDGGVFLAFGLEHHHHHH”, the “soluble on expression in E. coli” value is “not soluble”.

With “MGSDKIHHHHHHMKVVTFGEIMLRLSPPDHKRIFQTDSFDVTYGGAEANVAAFLAQMGLDAYFVTKLPNNPLGDAAAGHLRKFGVKTDYIARGGNRIGIYFLEIGASQRPSKVVYDRAHSAISEAKREDFDWEKILDGARWFHFSGITPPLGKELPLILEDALKVANEKGVTVSCDLNYRARLWTKEEAQKVMIPFMEYVDVLIANEEDIEKVLGISVEGLDLKTGKLNREAYAKIAEEVTRKYNFKTVGITLRESISATVNYWSVMVFENGQPHFSNRYEIHIVDRVGAGDSFAGALIYGSLMGFDSQKKAEFAAAASCLKHTIPGDFVVLSIEEIEKLASGATSGRVER”, the “soluble on expression in E. coli” value was “soluble”. Take “MDKEVTNIVLKRHDSIVKGAQDDREYRGLELTNGIRVLLVSDPTTDKSAAALDVKVGHLMDPWELPGLAHFCEHMLFLGTAKYPTENEYSKFLTDNAGHRNAVTASDHTNYHFDVKPDQLRGALDRFVQFFLSPQFTESATEREVCAVDSEHSNNLNNDLWRLSQVDRSLSKPGHDYAKFGTGNKKTLLEEARKKGVEPRDALLQFYKKWYSSNIMTCCIIGKESLDVLQSHLKTLEFDTIENKKVERKVWNENPYGPEQLGKRIDRKFFAHLIRHKGPGSLLVELKRLGWVNSLKSDSNTIAAGFGILNVTMDLSTGGLENVDEIIQLMLNYIGMLKSFGPQQWIHDELADLSDVKFRFKDKEQPMKMAINIAASLQYIPIEHILSSRYLLTKYEPERIKELLSTLTPSNMLVRVVSQKFKEQEGNTNEPVYGTEMKVTDISPEKMKKYENALKTSHHALHLPEKNEYIATNFGQKPRESVKNEHPKLISDDGWSRVWFKQDDEYNMPKQETKFALTTPIVSQNPRISLISSLWLWCFCDILSEETYNAALAGLGCQFELSPFGVQKQSTDGREAERHASLTLHVYGYDEKQPLFVKHLTSCMINFKIDRTRFEVLFESLKRTLTNHAFSQPYLLTQHYNQLLIVDKVWSKEQLLAVCDSVTLENVQGFAREMLQAFHMELFVHGNSTEKEAIQLSKELMDILKSAAPNSRPLYRNEHNPRREFQLNNGDEYIYRHLQKTHDAGCVEVTYQIGVQNKYDNAVVGLIDQLIKEPVFDTLRTNEALGYIVWTGCRFNCGAVALNIFVQGPKSVDYVLERIEVFLESVRKEIIEMPQDEFEKKVAGMIARLEEKPKTLSNRFKRFWYQIECRQYDFARREKEVKVLKSIGKDDVIALFDKKIRKNAVERRKLVVLVHGKIDDQETLNRIIKKNVESGKKEKEILNLDQLRQSLPVYDLPNAAIDLKPIGVDPLEQKESATVQ”: the “soluble on expression in E. coli” value is on record as “not soluble”. For “MAGDPMERIESRRARTVRQMLNIRKITYLEKTRKGIEMNSKTIGIDIGGANTKLASSDGTIVELHYLPLWKNTMLPEVLKEISQRLKPENVAVVMTGELADCFEDKEQGIRFIKENVDSAFGSGKVSYINSQGRFRKENDPLRDLAAANWAASARLIGEEIGDCIFVDVGSTTSDIIPVISGEHRAGHTDFERLLRSELVYAGTLRTNLAALLEKVKLEKGICRTSSELFATTADAYLILGEINEDKYTCETADGVGRSKIEAMRRIARLVCADLSEVGETEVYEIAEQVKEKQVSALTEAISEVAERNRLEKIAAAGLGEFLISEAAERLGFECISVAGRWGEEISKVFPAYAAARLLDKYSELEHHHHHH” the value was “not soluble”. For “MTARIYKPAKNAMQSGTAKTREWQLDYEPETPRTIEPLMGWTSSSDMQQQVSLRFHTRDEAVAYCEREGIPYQLIEPKEPVRRRAAYADNFAFRRPEPWTH” the value was “soluble”; for “HVFVVDFNGSIDAKEVSSLREEVSAILSVAKPEDEVFVRLESGGGMVHGYGLASSQLDRIRQHNIPLTVSVDKVAASGGYMMACVANNIISAPFAILGSIGVIAQVPNFNKLLKKHDIDFEQFTAGEFKRTVTMFGENTEKGKEKFIEELEETHVLFKNFVSERRPSLDIVKVATGEHWFGTTALELGLVDSIQTSDD”, “not soluble”.

Values taken from the DeepSol protein solubility set.
